Results reported in patent US20040110170A1, “Cloning and characterization of calcitonin gene related peptide receptors” (priority 2002, published 2004).
Ends that are not written are not given here.

Assays:
[1] = biological target: T1, JPr-CGRP receptor (Rattus norvegicus, UniProt O89039); experiment: Adenylate Cyclase Stimulation assay (cAMP), NIH/3T3 cells stably expressing JPr-CGRP receptor; assay type: cell-based; conditions: assay not specified
T1 construct: expressed in transfected cells; pCDL-Srα vector)
T1 sequence (O89039 whole entry): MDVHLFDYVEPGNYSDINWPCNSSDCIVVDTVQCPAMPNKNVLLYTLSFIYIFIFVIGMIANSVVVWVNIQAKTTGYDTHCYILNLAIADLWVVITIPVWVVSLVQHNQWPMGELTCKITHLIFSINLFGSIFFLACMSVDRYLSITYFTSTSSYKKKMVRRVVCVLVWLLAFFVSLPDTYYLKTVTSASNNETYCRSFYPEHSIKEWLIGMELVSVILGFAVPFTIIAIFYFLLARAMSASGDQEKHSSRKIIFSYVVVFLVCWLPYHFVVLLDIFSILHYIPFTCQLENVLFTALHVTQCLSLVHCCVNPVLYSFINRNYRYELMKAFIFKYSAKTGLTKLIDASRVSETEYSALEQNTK
Procedure: The cells were washed with 1 ml of a nutrient deficient DMEM solution (Gibco-BRL, Gaithersburg, Md.) to remove excess radioisotope and incubated for 10 minutes (37° Celsius). […] Peptide was added in 5 μL aliquots to 21 of the 24 wells with three receiving no peptide to serve as a baseline for stimulation. The remaining 21 wells were incubated at 37° Celsius with increasing concentrations of the indicated peptide and the response was measured.

[2] = biological target: JPr-CGRP receptor (rat CGRP receptor, JPr-CGRP-R) (rat) (UniProt O89039); experiment: Radioligand binding inhibition; unlabelled CGRP against 50 pM 125I-CGRP on stably transfected NIH/3T3 cells
Sequence of JPr-CGRP receptor (rat CGRP receptor, JPr-CGRP-R) (rat) (O89039 whole entry): as above

[3] = biological target: Skb-CGRP receptor (previously reported human CGRP type 1 receptor, Skb-CGRP-R) (human) (UniProt Q16602); experiment: as above
Sequence of Skb-CGRP receptor (previously reported human CGRP type 1 receptor, Skb-CGRP-R) (human) (Q16602 23-461): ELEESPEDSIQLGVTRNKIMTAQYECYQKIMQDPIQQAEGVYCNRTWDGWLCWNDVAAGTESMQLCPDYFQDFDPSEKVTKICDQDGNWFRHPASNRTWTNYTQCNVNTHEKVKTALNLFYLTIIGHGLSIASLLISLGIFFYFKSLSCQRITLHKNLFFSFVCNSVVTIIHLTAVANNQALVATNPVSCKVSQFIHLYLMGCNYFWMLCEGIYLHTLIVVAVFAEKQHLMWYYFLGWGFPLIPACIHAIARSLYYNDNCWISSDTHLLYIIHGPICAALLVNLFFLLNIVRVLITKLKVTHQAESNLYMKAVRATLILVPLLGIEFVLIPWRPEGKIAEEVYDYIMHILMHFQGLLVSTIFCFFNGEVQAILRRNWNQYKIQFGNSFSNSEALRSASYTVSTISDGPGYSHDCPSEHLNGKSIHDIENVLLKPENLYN

[4] = system: vector control transfected HEK 293 cells; conditions: cited from earlier work

Row | Substance | response of the JPr-CGRP receptor to related peptides [1] | also measured
1 | Adrenomedullin: peptide related to CGRP | shows response | 
2 | Amylin: peptide related to CGRP, tested on the receptor (KCNTATCATQRLANFLVHSSNNFGAILSSTNVGSNTY; not fully specified (C-terminus, bridges); cysteine pairing not given here; UniProt P10997 34-70, looked up) | shows response | 
3 | Calcitonin | shows response | 
4 | Calcitonin Gene Related Peptide (CGRP) |  | IC50 [2]: 0.0398 nM; IC50 [3]: 0.501 nM
5 | human Calcitonin: human Calcitonin, has cross reactivity with the CGRP receptor (CGNLSTCMLGTYTQDFNKFHTFPQTAIGVGAP; not fully specified (C-terminus, bridges); ends and bridges not checked; UniProt P01258 85-116, looked up) |  | cAMP accumulation as % of the maximum cAMP induced by CGRP in Skb-CGRP-R transfected cells [4]: 75%
